Columns and labels:
Experiment in all cases: EMSA
[1] = tested on: δ2D211A (Streptococcus pyogenes plasmid pSM19035); conditions: EMSA: 50 mM Tris-HCl pH 7.5, 50 mM NaCl, 10 mM MgCl2 (buffer B; Fig 7 legend says buffer C), with or without 1 mM ATP or ADP, 15 min at 37°C, 0.1 nM DNA; 4 or …
[2] = tested on: δ2K242A (Streptococcus pyogenes plasmid pSM19035); conditions: EMSA: 50 mM Tris-HCl pH 7.5, 50 mM NaCl, 10 mM MgCl2 (buffer B; Fig 7 legend says buffer C), with or without 1 mM ATP or ADP, 15 min at 37°C, 0.1 nM DNA; 4 or …
[3] = tested on: δ2 (ParA-like) (Streptococcus pyogenes plasmid pSM19035); conditions: 1 mM ATP, 10 mM Mg2+; KDapp, cooperative; EMSA: 50 mM Tris-HCl pH 7.5, 50 mM NaCl, 10 mM MgCl2 (buffer B; Fig 7 legend says buffer C), with or without 1 mM ATP or ADP, 15 min at 37°C, 0.1 nM DNA; 4 or …
[4] = tested on: δ2D60A (Streptococcus pyogenes plasmid pSM19035); conditions: EMSA: 50 mM Tris-HCl pH 7.5, 50 mM NaCl, 10 mM MgCl2 (buffer B; Fig 7 legend says buffer C), with or without 1 mM ATP or ADP, 15 min at 37°C, 0.1 nM DNA; 4 or …

423-bp HindIII-KpnI parS2 DNA was tested, and the binding signal (fold higher affinity than wt) [1] was > 6, the binding signal (fold lower binding than wt) [2] was 20 and the Kd [3] was 140 nM. For the same substance, the binding signal (fold higher affinity than wt) [4] was 2.

Reference: PMC4498918
